# According to publication PMC9568494, “A portable electrochemiluminescence aptasensor for β-lactoglobulin detection”:
# T1: beta-lactoglobulin (β-LG) (Bos taurus (cow)?, UniProt P02754 17-178)
# T1 sequence: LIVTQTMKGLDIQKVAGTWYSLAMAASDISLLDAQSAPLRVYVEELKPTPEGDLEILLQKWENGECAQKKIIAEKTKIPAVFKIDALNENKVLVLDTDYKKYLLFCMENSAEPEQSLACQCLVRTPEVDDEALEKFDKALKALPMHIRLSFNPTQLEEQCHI
# B1: BLG14 aptamer (ssDNA)
# DNA: GACGATCGGACCGCAGTACCCACCCACCAGCCCCAACATCATGCCCATCCGTGTGTG
# Target: T1, beta-lactoglobulin (β-LG)
# Assay: electrochemical (chronoamperometric) titration on gold screen-printed electrode, immobilized β-LG, streptavidin-HRP/TMB; 2 mM MgCl2 in BS-LG selection buffer; aptamer 40-100 nM; Kd read as inflection point; Kd assay: BS-LG, 50 mM Tris pH 7.4, 150 mM NaCl, 2 mM MgCl2 (wash and HRP step; aptamer diluent not stated), 30 min incubation, temperature not stated
# Conditions: protein: commercial; chain copies: 2; label: 5'-biotin
binder,measurement,value
B1,Kd,56 nM
